This note sets out measurements from patent US20140322218A1 (Amgen, published 2014).

The experiment concerns the target T1, muCDH19(44-461)::huCDH19(464-772), Flag-tagged, on 293T cells (human/mouse chimera).
T1 construct: also called Hu EC5; C137915
T1 chain: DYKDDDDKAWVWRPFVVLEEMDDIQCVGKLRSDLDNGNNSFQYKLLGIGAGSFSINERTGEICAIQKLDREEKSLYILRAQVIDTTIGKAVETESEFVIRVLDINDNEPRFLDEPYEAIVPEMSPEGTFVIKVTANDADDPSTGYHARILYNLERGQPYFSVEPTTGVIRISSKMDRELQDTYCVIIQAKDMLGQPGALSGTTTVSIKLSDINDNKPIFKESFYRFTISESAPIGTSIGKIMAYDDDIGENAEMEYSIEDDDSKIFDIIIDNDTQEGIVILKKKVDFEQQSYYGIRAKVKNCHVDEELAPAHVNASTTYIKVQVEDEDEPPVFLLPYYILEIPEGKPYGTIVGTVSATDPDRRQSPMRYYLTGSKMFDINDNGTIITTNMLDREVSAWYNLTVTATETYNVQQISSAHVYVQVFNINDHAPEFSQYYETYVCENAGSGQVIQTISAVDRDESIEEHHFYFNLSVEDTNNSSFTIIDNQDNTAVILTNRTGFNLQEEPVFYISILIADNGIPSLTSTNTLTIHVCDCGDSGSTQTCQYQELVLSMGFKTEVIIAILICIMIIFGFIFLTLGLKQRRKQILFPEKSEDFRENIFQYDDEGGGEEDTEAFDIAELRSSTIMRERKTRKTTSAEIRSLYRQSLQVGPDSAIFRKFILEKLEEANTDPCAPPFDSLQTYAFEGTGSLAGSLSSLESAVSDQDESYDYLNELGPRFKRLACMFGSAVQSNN
Briefly: FACS, transfected 293T.

Text: The experiment included assaying the anti-CDH19 antibodies against mouse Cadherin19 to determine suitability for binning on these human/mouse chimeras.

B1: anti-CDH19 antibody 2G6 (Ab ID 13588) (antibody, human IgG1, lambda, V domains shown)
VH: QVQLVESGGGVVQPGRSLRLSCAASGFTFSSYGMHWVRQAPGKGLEWVAFIWYDGSNKYYADSVKDRFTISRDNSKNTLYLQMKSLRAEDTAVYYCARRAGIIGTIGYYYGMDVWGQGTTVTVSS
VL: SYELTQPPSVSVSPGQTASITCSGDRLGEKYTCWYQQRPGQSPLLVIYQDTKRPSGIPERFSGSNSGNTATLTISGTQAMDEADYYCQAWDSSTVVFGGGTKLTVLG
For the molecule B1, the binding result was “binds”.
